Laboratory results published in PMC8561297.

Key:
[1] = biological target: von Willebrand factor (human (endogenous in whole blood)) (UniProt P04275)
[2] = biological target: von Willebrand factor (human (endogenous in whole blood)) (UniProt P04275); remark: listed apart in the source

platelet GPIbα (from UniProt P07359 17-652) (receptor)
share of slow-rolling platelets at constant shear [1]: 36% | share of slow-rolling platelets at shear rate gradient [1]: 52.9% | platelet adhesion at the stenosis apex, control (platelets/mm^2) [2]: 3930 | platelet adhesion in the stenosis outlet, control (platelets/mm^2) [2]: 5040 | platelet rolling velocity at the stenosis apex, control [2]: 4.41 μm s^-1 | platelet rolling velocity at the stenosis apex, with scFv A1 [2]: 4.6 μm s^-1
